Data on six molecules can be found in publication PMC9903292, “A Reductive Aminase Switches to Imine Reductase Mode for a Bulky Amine Substrate” (ACS Catalysis, 2023).

One series concerns the target T1, IR77 (wt-IR77) (Ensifer adhaerens, UniProt A0A0L8BGL4, A208N).
T1 construct: gene AC244_29830; domain-swapped homodimer, two active sites at the interface
As to the kind of experiment: X-ray crystallography. It is filed as binding. Particulars: cofactor site at the dimer interface; P2_12_12_1, one open and one closed active site.

Substrate in series [1]: C1CCNC1
As to the kind of experiment: purified protein. Conditions: NADPH.

Substrate in series [2]: c1ccc2c(c1)CNC2
In words: purified protein. Conditions: co-substrate 10 mM cyclohexanone, NADPH.

Substrate in series [3]: O=C1CCCCC1
In words: UV spectrophotometry, NADPH oxidation. It is filed as biochemical, Ensifer adhaerens. Particulars: co-substrate pyrrolidine b at constant concentration.

Substrate in series [4]: O=C1CCCCC1
In words: UV spectrophotometry, NADPH oxidation. It is filed as biochemical, Ensifer adhaerens. Conditions: co-substrate pyrrolidine b at constant concentration. The source says:
UV spectrophotometry, NADPH oxidation on IR77 (wt-IR77)
This is another data set of the same source.

[5] abbreviates: co-substrate 10 mM cyclohexanone, reductive amination.
Setting [6] is: imine probably formed in solution and then reduced by the enzyme.
Setting [7] is: reductive amination, 16 mM and kcat 0.25.
The mark [8] stands for this setting: co-substrate cyclohexanone at constant concentration.
[9] abbreviates: imine probably formed in solution.

Where a chain is given by its changes, count along the chain named. Numbers in names are those of the source.

T1 sequence (A0A0L8BGL4 entry or part of it A208N): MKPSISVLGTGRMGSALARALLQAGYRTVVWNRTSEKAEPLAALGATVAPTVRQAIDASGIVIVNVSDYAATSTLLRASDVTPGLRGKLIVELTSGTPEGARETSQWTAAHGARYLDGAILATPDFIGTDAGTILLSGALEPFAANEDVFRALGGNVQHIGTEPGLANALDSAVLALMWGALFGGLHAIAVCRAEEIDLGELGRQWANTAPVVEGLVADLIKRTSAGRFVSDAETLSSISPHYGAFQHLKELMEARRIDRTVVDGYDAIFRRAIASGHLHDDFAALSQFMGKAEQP

Regarding `NC(=O)c1ccc[n+]([C@@H]2O[C@H](COP(=O)(O)OP(=O)(O)OC[C@H]3O[C@@H](n4cnc5c(N)ncnc54)[C@H](OP(=O)(O)O)[C@@H]3O)[C@@H](O)[C@H]2O)c1` [NADP^+], on IR77 (wt-IR77), the X-ray crystallography result is on record as “electron density for the cofactor NADP^+ was again clearly visible within the active sites”.

B1: IR77 (wt-IR77) (Ensifer adhaerens) (protein)
chain: MKPSISVLGTGRMGSALARALLQAGYRTVVWNRTSEKAEPLAALGATVAPTVRQAIDASGIVIVNVSDYAATSTLLRASDVTPGLRGKLIVELTSGTPEGARETSQWTAAHGARYLDGAILATPDFIGTDAGTILLSGALEPFAANEDVFRALGGNVQHIGTEPGLANALDSAVLALMWGALFGGLHAIAVCRAEEIDLGELGRQWAATAPVVEGLVADLIKRTSAGRFVSDAETLSSISPHYGAFQHLKELMEARRIDRTVVDGYDAIFRRAIASGHLHDDFAALSQFMGKAEQP
notes: domain-swapped homodimer, two active sites at the interface
Usually Km stands for the concentration of substrate that gives half-maximal velocity. The kcat is the number of substrate molecules converted per active site and unit of time at saturation. The kcat/Km is the second-order rate constant that governs catalysis at low substrate concentration. For the molecule B1, the results for the Km (in the series “purified protein [1]” (setting [5]); in the series “purified protein [2]” (setting [6]); in series [3] (setting [7])) were 17 mM, 0.61 mM and 15 mM, respectively. In addition, the turnover number (kcat) in “purified protein [1]” (setting [5]) was determined as 0.12 s⁻¹; in the series “purified protein [2]” (setting [6]), 0.30 s⁻¹; in series [3] (setting [7]), 0.24 s⁻¹. The specificity constant (kcat/Km) came out at 7.2 M⁻¹ s⁻¹ in “purified protein [1]” (setting [5]) and 16 M⁻¹ s⁻¹ in series [3] (setting [7]).

B2: IR77 (wt-IR77) (Ensifer adhaerens; A208S) (protein)
chain: B1 chain with A208S
notes: as for B1
In the case of B2, in the series “purified protein [1]” (setting [8]), the Km was 9.7 mM, the kcat amounted to 0.21 s⁻¹ and the kcat/Km amounted to 22 M⁻¹ s⁻¹. In the series “purified protein [2]” (setting [9]), the Km is on record as 0.60 mM and the kcat came out at 0.23 s⁻¹. In addition, in series [3] (kcat 0.44), the Km is listed as 9.6 mM, the kcat amounted to 0.43 s⁻¹ and the specificity constant (kcat/Km) turned out to be 45 M⁻¹ s⁻¹.

B3: IR77 (wt-IR77) (Ensifer adhaerens; A208N) (protein)
chain: B1 chain with A208N
notes: as for B1
Take B3: in the series “purified protein [2]” (setting [9]), the Km was 0.94 mM and the kcat was 0.28 s⁻¹. Moreover, in series [3], the Km is listed as 26 mM, the kcat was determined as 0.5 s⁻¹ and the catalytic efficiency (kcat/Km) was determined as 20 M⁻¹ s⁻¹.

B4: IR77 (wt-IR77) (Ensifer adhaerens; C192I) (protein)
chain: B1 chain with C192I
notes: as for B1
Regarding B4, in “purified protein [1]” (setting [8]), the Km is given as 9.0 mM, the kcat came out at 0.1 s⁻¹ and the kcat/Km worked out at 11 M⁻¹ s⁻¹. In series [4], the Km is 16 mM, the turnover number (kcat) amounted to 0.33 s⁻¹ and the kcat/Km came out at 21 M⁻¹ s⁻¹.

B5: IR77 (wt-IR77) (Ensifer adhaerens; A119S) (protein)
chain: B1 chain with A119S
notes: as for B1
For B5, in the series “purified protein [1]” (setting [8]), the Km was 23 mM, the kcat turned out to be 0.09 s⁻¹ and the catalytic efficiency (kcat/Km) was 4 M⁻¹ s⁻¹. Further, in series [4], the Michaelis-Menten constant (Km) is 16 mM, the turnover number (kcat) turned out to be 0.25 s⁻¹ and the catalytic efficiency (kcat/Km) was 16 M⁻¹ s⁻¹.
